In general, Kd refers to the concentration at which binding is half-saturated. A word on the koff: it is a measure of how fast the partners let go of each other. One may read the kon as the second-order rate constant of association.

The target of assay [1] is mouse cMET (recombinant) (mouse, UniProt P16056 25-929, limits assumed). Briefly: ELISA, antigen coated at 1 µg/mL, antibody titrated from 10 µg/mL. On the procedure:
(§1) Specificity for EGFR and cMET species paralogs and closely related family members was determined by ELISA. Briefly, antigen solutions were prepared in PBS at 1 μg/mL and 50 microliters was coated onto half area ELISA assay plates. Plates were washed and blocked with 1% BSA in PBS containing 0.005% Tween-20 (PBS-T) for one hour at room temperature. […] Wells were incubated with 50 microliters of the indicated primary antibodies diluted in PBS-T in a 1:3 dilution series, starting at 10 μg/mL and ending at 0.002 μg/mL, except for the HER4 binding mAb control, MAB1131, for which the series started at 1 μg/mL. The wells were washed 4 times in PBS-T, then 50 μl of goat anti-human Fab HRP-labeled secondary antibody, diluted 1:5000 in PBS-T, was added to each well and incubated for one hour at room temperature. […] 50 microliters of TMB stop solution was added to all wells and the absorbance was read at 450 nm on a SpectraMax M5 microplate reader. Data were analyzed in the SoftMax Pro 5 software and plotted using GraphPad Prism 7 graphing software.
(§2) To determine the species cross reactivity, ELISA assays were carried out as described above.
In general terms: In an ELISA, binding on a coated surface is turned into a signal by an enzyme label.

For assay [2], the target named is T1, Ron (CD136) (UniProt Q04912 25-957, limits assumed).
T1 sequence (looked up): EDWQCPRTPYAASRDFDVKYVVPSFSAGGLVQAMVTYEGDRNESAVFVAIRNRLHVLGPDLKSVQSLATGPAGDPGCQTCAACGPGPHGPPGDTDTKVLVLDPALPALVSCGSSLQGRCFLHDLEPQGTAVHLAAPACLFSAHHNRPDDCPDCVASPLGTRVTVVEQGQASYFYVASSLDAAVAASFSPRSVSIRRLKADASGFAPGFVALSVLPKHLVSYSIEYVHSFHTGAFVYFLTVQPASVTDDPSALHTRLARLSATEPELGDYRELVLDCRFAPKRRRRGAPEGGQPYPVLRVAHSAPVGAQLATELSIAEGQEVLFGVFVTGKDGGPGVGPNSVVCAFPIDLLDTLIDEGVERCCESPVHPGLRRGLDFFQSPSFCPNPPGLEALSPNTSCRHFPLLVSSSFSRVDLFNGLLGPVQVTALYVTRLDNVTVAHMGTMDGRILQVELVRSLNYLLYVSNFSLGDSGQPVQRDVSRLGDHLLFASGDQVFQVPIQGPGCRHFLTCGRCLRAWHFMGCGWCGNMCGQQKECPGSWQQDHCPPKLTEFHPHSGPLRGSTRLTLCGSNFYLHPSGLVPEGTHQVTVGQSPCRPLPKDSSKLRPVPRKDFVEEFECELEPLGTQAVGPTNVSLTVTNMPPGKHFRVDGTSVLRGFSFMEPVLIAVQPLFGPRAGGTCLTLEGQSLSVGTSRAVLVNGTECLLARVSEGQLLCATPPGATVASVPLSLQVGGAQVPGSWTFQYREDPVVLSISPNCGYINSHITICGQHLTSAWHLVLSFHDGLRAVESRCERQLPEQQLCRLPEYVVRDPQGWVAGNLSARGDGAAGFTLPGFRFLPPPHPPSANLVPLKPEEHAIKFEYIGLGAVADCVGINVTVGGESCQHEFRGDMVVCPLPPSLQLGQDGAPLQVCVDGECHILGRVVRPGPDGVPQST
The assay is described as above. On the procedure:
as §1, §2

The target in assay [3] is T2, Semaphorin 3a (UniProt Q14563 21-771, limits assumed).
T2 sequence (looked up): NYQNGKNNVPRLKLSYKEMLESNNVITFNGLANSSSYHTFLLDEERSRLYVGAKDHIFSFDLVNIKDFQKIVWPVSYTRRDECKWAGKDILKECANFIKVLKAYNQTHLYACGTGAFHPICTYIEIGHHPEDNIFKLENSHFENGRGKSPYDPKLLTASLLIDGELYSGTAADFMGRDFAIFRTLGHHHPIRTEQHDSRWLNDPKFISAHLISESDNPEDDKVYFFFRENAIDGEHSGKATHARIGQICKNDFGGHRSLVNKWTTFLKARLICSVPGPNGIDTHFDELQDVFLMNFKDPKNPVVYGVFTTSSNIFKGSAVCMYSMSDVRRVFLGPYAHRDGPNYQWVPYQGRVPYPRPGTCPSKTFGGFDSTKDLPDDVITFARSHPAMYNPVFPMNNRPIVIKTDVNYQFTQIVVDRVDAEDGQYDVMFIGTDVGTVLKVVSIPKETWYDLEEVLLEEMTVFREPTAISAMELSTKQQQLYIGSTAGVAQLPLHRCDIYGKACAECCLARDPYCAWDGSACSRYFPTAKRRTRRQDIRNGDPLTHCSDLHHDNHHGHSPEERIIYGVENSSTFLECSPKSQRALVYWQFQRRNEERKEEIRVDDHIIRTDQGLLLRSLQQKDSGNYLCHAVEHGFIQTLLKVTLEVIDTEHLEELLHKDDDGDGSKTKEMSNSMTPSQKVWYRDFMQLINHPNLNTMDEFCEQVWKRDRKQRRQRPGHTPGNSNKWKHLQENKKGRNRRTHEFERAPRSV
Described as above. On the procedure:
as §1, §2

For assay [4], the target named is c-MET receptor on the cell surface (H1975 cells) (UniProt P08581). In words: cell-based or functional assay.
Assay [5] deals with T3, cynomolgus monkey cMET (recombinant, soluble monomeric) (cynomolgus monkey, UniProt A0M8R7 25-932 (Papio anubis entry)).
T3 construct: also called cyno cMET
Briefly: SPR (BIAcore T200), antibody captured on anti-human IgG, soluble monomeric antigen as analyte, 25 C, 1:1 fit. The procedure: (§3) Mouse anti-human IgG was immobilized on a CM4 sensor chip with a final surface density of ˜2000 resonance units (RUs). A reference flow cell surface was also prepared on this sensor chip using identical immobilization protocol. Test and control article antibodies were prepared at 5-20 nM in instrument buffer (HBS-EP buffer; 0.01M HEPES, pH 7.4, 0.15M NaCl, 3 mM EDTA, and 0.005% P-20), along with 3-fold serial dilutions of purified EGFR (0.27-200 nM human, 0.4-900 nM cyno, and 4-1000 nM murine) or cMET proteins (0.27-66 nM human and 0.27-22 nM cyno) in instrument buffer. A sequential approach was utilized for kinetic measurements. Antibodies were first injected over the capture surface, at a flow rate of 10 μL/minute. Once the binding of the captured antibody stabilized, a single concentration of the analyte was injected over both capture and reference surfaces, at a flow rate of 75 μL/minute. The resulting binding response curves yielded the association phase data. Following the injection of analyte, the flow was then switched back to instrument buffer for 15 minutes to permit the collection of dissociation phase data, followed by a 1-minute pulse of 10 mM glycine, pH 1.5, to regenerate the antibody-captured surface on the chip. Binding responses against test and control article antibodies were recorded from duplicate injections of each concentration of analyte. In addition, several buffer injections were interspersed throughout the injection series. Select buffer injections were used along with the reference cell responses to correct the raw data sets for injection artifacts and/or nonspecific binding interactions, commonly referred to as “double referencing”. Corrected binding data were globally fit to a 1:1 binding model (Biacore T200 Evaluation software 2.0, GE Healthcare, Pittsburgh, PA).
(§4) Kinetic measurements to soluble monomeric forms of EGFR and cMET were performed using a BIACore instrument.
(Surface plasmon resonance follows binding to a sensor surface in real time, without labels.)

In assay [6] the target is T4, human EGFR (recombinant, soluble monomeric) (human, UniProt P00533 25-645).
T4 construct: also called EGFR antigen
Described as above. The procedure:
as §3, §4

Assay [7] deals with T5, cynomolgus monkey EGFR (recombinant, soluble monomeric) (cynomolgus monkey, UniProt P55245 25-645 (rhesus entry)).
T5 construct: also called cyno EGFR
The assay is described as above. The procedure: as §3, §4

Assay [8] deals with T6, mouse EGFR (recombinant) (mouse, UniProt Q01279 25-647).
T6 construct: also called murine EGFR
Described as above. The procedure:
as §3, §4

The target in assay [9] is T7, human cMET (recombinant, soluble monomeric) (human, UniProt P08581 25-932).
T7 construct: also called cMET antigen; His-tagged cMET antigen
Described as above. On the procedure: as §3, §4

T7 sequence (P08581 25-932): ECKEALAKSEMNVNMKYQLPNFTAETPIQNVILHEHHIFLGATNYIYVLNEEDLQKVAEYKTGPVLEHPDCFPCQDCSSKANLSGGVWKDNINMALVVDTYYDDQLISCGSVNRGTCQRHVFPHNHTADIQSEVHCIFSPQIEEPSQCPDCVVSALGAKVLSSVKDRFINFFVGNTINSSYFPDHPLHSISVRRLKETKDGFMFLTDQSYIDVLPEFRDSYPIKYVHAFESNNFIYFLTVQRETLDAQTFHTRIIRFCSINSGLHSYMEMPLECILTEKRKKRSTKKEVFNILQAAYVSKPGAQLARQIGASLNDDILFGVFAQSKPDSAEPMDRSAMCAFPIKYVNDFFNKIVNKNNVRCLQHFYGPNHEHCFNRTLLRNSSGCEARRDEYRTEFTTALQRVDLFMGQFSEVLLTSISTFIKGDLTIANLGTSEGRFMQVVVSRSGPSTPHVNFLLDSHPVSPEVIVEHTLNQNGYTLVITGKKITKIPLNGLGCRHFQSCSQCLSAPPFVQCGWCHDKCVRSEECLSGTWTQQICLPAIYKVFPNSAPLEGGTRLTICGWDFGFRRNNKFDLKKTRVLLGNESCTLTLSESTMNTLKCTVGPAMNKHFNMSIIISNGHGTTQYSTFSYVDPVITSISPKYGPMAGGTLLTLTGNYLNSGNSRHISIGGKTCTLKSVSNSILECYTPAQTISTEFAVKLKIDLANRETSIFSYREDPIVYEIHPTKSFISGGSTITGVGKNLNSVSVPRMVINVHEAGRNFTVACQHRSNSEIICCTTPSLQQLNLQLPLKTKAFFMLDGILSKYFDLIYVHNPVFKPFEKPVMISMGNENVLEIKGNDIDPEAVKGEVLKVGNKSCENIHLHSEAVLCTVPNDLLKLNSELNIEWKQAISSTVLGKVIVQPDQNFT
T3 sequence (A0M8R7 25-932 S170N/I621T): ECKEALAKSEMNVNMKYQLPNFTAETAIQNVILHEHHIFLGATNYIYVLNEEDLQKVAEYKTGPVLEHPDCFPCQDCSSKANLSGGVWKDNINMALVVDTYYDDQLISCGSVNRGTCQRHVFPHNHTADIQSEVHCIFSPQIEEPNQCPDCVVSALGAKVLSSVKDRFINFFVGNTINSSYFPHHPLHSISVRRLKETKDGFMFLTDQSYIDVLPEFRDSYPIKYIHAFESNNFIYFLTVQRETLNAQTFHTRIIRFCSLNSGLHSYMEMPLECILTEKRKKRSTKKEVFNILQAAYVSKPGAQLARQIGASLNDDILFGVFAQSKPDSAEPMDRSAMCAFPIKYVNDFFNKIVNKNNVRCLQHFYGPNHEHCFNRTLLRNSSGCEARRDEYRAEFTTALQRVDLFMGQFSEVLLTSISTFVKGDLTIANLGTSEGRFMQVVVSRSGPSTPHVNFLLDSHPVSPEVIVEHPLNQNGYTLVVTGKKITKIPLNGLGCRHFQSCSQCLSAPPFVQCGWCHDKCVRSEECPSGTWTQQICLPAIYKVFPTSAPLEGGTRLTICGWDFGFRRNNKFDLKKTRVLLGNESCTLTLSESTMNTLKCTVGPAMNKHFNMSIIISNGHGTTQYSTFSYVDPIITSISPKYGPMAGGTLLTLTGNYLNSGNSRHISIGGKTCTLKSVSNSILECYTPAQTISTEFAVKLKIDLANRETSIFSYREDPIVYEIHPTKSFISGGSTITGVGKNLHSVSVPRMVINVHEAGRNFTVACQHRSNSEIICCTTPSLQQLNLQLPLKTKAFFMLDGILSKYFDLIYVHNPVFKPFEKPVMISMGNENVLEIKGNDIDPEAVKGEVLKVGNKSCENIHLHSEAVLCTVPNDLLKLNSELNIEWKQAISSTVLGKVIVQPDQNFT
Sequence of mouse cMET (recombinant) (P16056 25-929 limits assumed): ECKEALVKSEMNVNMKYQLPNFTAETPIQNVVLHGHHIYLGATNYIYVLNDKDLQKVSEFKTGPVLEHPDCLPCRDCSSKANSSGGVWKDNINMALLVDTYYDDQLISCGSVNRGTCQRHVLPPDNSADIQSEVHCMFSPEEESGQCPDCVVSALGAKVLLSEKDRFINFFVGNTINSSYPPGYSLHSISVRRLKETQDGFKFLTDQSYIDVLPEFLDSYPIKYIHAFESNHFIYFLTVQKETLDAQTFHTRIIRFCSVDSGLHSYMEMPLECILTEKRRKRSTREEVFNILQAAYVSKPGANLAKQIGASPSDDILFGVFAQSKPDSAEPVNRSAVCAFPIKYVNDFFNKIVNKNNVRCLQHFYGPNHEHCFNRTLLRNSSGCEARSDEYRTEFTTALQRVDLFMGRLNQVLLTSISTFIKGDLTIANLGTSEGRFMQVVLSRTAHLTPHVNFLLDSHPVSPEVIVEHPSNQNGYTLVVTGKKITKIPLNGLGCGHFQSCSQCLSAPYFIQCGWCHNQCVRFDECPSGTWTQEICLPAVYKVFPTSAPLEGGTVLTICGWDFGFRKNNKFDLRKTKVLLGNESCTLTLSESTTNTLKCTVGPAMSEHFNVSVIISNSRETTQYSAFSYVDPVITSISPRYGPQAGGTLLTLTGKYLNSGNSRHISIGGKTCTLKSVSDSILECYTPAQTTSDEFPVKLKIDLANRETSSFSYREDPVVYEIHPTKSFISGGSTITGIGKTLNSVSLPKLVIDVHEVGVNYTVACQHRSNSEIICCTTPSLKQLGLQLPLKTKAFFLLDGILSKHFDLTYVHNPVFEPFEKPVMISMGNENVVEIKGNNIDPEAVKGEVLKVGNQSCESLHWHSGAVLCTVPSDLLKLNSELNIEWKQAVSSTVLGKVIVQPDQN
Sequence of c-MET receptor on the cell surface (H1975 cells) (P08581 25-1390): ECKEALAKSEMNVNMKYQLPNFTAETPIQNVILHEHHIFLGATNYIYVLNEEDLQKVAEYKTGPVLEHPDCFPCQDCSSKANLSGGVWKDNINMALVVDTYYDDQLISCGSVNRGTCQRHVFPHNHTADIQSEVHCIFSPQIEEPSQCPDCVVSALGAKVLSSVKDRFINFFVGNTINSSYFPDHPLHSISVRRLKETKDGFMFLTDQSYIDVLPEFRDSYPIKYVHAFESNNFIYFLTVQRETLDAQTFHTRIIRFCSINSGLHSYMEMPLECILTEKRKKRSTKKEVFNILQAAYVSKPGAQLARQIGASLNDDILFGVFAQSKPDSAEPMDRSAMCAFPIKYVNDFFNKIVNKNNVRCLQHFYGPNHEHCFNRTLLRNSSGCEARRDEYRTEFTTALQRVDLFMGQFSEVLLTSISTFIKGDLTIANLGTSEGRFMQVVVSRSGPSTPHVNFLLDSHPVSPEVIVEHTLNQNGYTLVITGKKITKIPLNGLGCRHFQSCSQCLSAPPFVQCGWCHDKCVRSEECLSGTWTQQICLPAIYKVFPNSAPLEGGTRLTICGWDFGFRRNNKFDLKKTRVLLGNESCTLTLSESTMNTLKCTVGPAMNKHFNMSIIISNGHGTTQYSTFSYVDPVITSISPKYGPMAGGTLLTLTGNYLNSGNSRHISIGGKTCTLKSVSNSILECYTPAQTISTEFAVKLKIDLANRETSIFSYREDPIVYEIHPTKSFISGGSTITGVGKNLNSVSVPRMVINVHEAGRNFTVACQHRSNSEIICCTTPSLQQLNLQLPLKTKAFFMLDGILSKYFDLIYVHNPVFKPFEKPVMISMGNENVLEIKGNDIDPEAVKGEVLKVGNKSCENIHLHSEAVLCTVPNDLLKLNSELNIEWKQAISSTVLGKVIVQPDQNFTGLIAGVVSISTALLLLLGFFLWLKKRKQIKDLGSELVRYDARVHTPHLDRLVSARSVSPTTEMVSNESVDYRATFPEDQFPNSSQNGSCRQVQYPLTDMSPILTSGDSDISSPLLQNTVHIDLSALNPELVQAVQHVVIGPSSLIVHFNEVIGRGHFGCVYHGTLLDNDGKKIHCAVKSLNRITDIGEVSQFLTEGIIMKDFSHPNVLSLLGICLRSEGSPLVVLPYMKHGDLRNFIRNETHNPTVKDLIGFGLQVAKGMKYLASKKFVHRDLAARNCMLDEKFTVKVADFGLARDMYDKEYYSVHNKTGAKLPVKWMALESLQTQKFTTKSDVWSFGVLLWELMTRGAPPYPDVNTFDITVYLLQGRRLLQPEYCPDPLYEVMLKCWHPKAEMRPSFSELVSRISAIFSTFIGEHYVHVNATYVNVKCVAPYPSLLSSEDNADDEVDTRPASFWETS

B1: QD6 IgG (antibody, V domains shown)
VH: QVQLVQSGAEVKKPGSSVKVSCKASGGTFSDNDFSWVRQAPGQGLEWMGAIVAVVRTETYAQKFQDRVKITADISTRTTYMELSSLRSEDTAVYYCARRLMSAISGPGAPLLMWGQGTLVTVSS
VL: QSALTQPRSVSGSPGQSVTISCTGTSSDVGGYNYVSWYQQHPGKAPKLMIYDVSERPSGVPDRFSGSKSGNTASLTISGLQAEDEADYYCFSYTSSDTLEIFGGGTKLTVL
notes: also called anti-EGFR antibody clone QD6
In the case of B1, the binding result in assay [1], in assay [2] and in [3] was “no binding (tested: 10 µg/mL)” each time.

B2: B09/IgG single-arm control antibody (bispecific antibody, part only; not given: non-binding control arm, V domains shown, part only)
VH: QVQLVQSGAEVKKPGASVKVSCKASGYTFTDYYIHWVRQATGQGLEWMGWMNPNSGNTGYAQKFQGRVTMTRDTSISTAYMELSSLRSEDTAVYYCARGQGYTHSWGQGTMVTVSS
VL: DIQMTQSPSTLSASVGDRVTITCRASEGIYHWLAWYQQKPGKAPKLLIYKASSLASGVPSRFSGSGSGTEFTLTISSLQPDDFATYYCQQYSNYPPTFGGGTKLEIK
Turning to B2, the cytoplasmic intensity (AlexaFluor647, confocal microscopy, H1975 cells): fold higher for RAA22/B09 DuetMab than for B09-IgG in [4] stood at 4.7 fold.

B3: QD6/B09-57 DuetMab (bispecific antibody, V domains shown)
VH 1: B1 VH
VL 1: B1 VL
VH 2: B2 VH
VL 2: B2 VL
notes: also called QD6/B09 DuetMab; QD6/B09-AlexaFluor647
B3: the binding result in assay [1], in assay [2] and in [3] was “no binding (tested: 10 µg/mL)” each time. The Kd in [5] was found to be 2.2 nM; in assay [6] it was 5.9 nM; in assay [7], 2.8 nM; in assay [8], 6.2 nM; in assay [9], 1.6 nM. In addition, the koff in assay [5] worked out at 0.00206 s⁻¹; in [6] it was 0.000374 s⁻¹; in assay [7], 0.000585 s⁻¹; in assay [8], 0.00078 s⁻¹; in assay [9] it was 0.000696 s⁻¹. Moreover, the kon in assay [5] was found to be 958000 M⁻¹ s⁻¹; in assay [6] it was 63500 M⁻¹ s⁻¹; in assay [7], 210000 M⁻¹ s⁻¹; in assay [8] it was 126000 M⁻¹ s⁻¹; in assay [9], 425000 M⁻¹ s⁻¹.
